B1: His-SUMO-MLLE (PABPC1 MLLE domain 544-626 fused with a His-tagged SUMO tag) (domain or fragment, UniProt P11940 544-626, looked up)
chain: PLTASMLASAPPQEQKQMLGERLFPLIQAMHPTLAGKITGMLLEIDNSELLHMLESPESLRSKVDEAVAVLQAHQAKEAAQKA
notes: Fragment 544-626 inserted into pET28SUMO; the tag was kept and used as the handle for Ni-NTA capture; source: E. coli Rosetta II, purified; not shown: His6-SUMO, N-terminal, kept
B2: PABPC1 MLLE (544-626) (domain or fragment, UniProt P11940 544-626, looked up)
chain: B1 chain
notes: also called PABP MLLE; MLLE domain; source: E. coli Rosetta II, purified (glutathione agarose, 3C protease, nickel column, SEC); not shown: GST, N-terminal, cleaved

What was measured:
Conditions in all cases: both partners purified
[1] = target: T1, LARP4A (1-287), N-terminal domain (human, UniProt Q71RC2 1-287); assay: pull-down; His-SUMO-MLLE (200 ug) as bait mixed with 250 ug untagged LARP4A protein on ice, Ni-NTA agarose, washes in 50 mM Tris pH 7.25, 100 mM KCl, 0.2 mM EDTA, 1 mM DTT, 10 mM imidazole, elution with 500 mM imidazole, Coomassie SDS-PAGE
T1 construct: LARP4A (LARP4), human, residues 1-287 (NTR 1-111 with PAM2w motif 13-26, plus La module 111-287); The NTD was cloned both with a TEV-cleavable His6 tag (pRSFDuet-1) and with a His6-SUMO tag (pET28SUMO, cut by ULP1); also called NTD; LARP4A NTD; source: E. coli Rosetta II, purified (His-Trap, tag cleaved, nickel column, heparin or DEAE); not shown: His6, N-terminal, cleaved

[2] = target: T2, LARP4A NTD L15A (human, UniProt Q71RC2 1-287, L15A); assay: as above
T2 construct: LARP4A (LARP4), human, residues 1-287, PAM2w single mutant; Generated from the NTD by site-directed mutagenesis; used untagged; source: E. coli Rosetta II, purified (His-Trap, tag cleaved, nickel column, heparin or DEAE); not shown: His6, N-terminal, cleaved

[3] = target: T3, LARP4A NTD W22F (human, UniProt Q71RC2 1-287, W22F); assay: as above
T3 construct: LARP4A (LARP4), human, residues 1-287, PAM2w single mutant; Generated from the NTD by site-directed mutagenesis; used untagged; source: E. coli Rosetta II, purified (His-Trap, tag cleaved, nickel column, heparin or DEAE); not shown: His6, N-terminal, cleaved

[4] = target: T4, LARP4A NTD W22A (human, UniProt Q71RC2 1-287, W22A); assay: as above
T4 construct: LARP4A (LARP4), human, residues 1-287, PAM2w single mutant; Generated from the NTD by site-directed mutagenesis; used untagged; source: E. coli Rosetta II, purified (His-Trap, tag cleaved, nickel column, heparin or DEAE); not shown: His6, N-terminal, cleaved

[5] = target: T1, LARP4A (1-287), N-terminal domain; assay: native gel or EMSA; competition EMSA: MLLE 12.5-200 uM titrated into a pre-formed complex of 7.5 uM LARP4A NTD and 2 nM 32P-oligoA15; competition constant KC from the fraction of bound RNA

T1 sequence (Q71RC2 1-287): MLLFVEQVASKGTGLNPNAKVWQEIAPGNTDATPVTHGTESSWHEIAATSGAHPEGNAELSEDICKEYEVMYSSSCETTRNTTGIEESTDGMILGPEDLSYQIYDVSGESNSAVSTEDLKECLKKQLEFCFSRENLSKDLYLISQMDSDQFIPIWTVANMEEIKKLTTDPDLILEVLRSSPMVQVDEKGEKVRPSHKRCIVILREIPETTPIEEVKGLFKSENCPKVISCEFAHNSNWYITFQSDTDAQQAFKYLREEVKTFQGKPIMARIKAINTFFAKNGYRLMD
T3 sequence (Q71RC2 1-287 W22F): as the sequence (Q71RC2 1-287) above, with W22F counted along it
T4 sequence (Q71RC2 1-287 W22A): as the sequence (Q71RC2 1-287) above, with W22A counted along it
T2 sequence (Q71RC2 1-287 L15A): as the sequence (Q71RC2 1-287) above, with L15A counted along it

Binder | binding result [1] | binding result [2] | binding result [3] | binding result [4] | binding result [5]
B1 | binds | binds | binds | binds | –
B2 | – | – | – | – | binds

Reference: article PMC6486636, “LARP4A recognizes polyA RNA via a novel binding mechanism mediated by disordered regions and involving the PAM2w motif, revealing interplay between PABP, LARP4A and mRNA” (Nucleic Acids Research, 2019)
